T1: amphyphisin SH3 (AMPH_HUMAN), P49418
T1 chain: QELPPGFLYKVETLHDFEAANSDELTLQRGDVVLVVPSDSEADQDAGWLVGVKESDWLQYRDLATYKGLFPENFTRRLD


Tests used:
[1] = molecular target: T1, amphyphisin SH3 (AMPH_HUMAN), P49418; assay: SPOT array
[2] = molecular target: endophilin SH3 (SH3G2_HUMAN), Q99962; assay: SPOT array

Binder | normalised SPOT signal, Boehringer light units (BLU); mean over the file's lines of this peptide [1] | normalised SPOT signal, Boehringer light units (BLU); mean over the file's lines of this peptide [2]
SGPGPARPARARPR [P53539 130-143] | 14900 | 17200
SHHPPDRPPDPFST [Q8TA97 483-497] | 30.4 | 1390
SALSLRRPHSGWSA [O75097 1019-1032] | 27.1 | 47.4
SGVLLVRPSRLSSS [P11362 439-452] | 7990 | 210
SGKGLRRPHSTVEE [Q9P2L5 16-29] | 44.8 | 17.2
SGPDLRRPPTPAPW [Q96IB8 451-464] | 39.4 | 39.1
SGTALLRPLRPKPP [Q92766 106-119] | 147 | 153
AAVAPSRPGREPQA [Q9ULI4 780-793] | 2520 | 418
SGNSLKRPDTTESL [Q96SU4 326-339] | 24.4 | 18.9
SGLAPKRPGPAGEL [Q16849 127-140] | 22.9 | 11.3
SGSKLKRPTPTFHS [Q9UPN3 5307-5320] | 41.6 | 40.3
SGMAFPRPKRPAPA [Q9BQ84 245-258] | 1310 | 629
SAGPPSRPQRPFSA [O43257 105-118] | 4230 | 2420
SGTPIRRPMGQMKP [P16930 169-182] | 3.3 | 148
SGSRPRKPPPRKHT [Q9P189 81-95] | 3680 | 3720
SGLRLRRPRVSSTE [Q9H3P9 250-263] | 67.4 | 44.7
SHGSPRRPGPEPGA [O95180 532-545] | 44.7 | 31

From publication PMC314469, “Protein Interaction Networks by Proteome Peptide Scanning” (PLoS Biology, 2004)
